First the molecules themselves.
T1: CD70 (on CD70+ 786-O target cells) (UniProt P32970)
T1 sequence (looked up): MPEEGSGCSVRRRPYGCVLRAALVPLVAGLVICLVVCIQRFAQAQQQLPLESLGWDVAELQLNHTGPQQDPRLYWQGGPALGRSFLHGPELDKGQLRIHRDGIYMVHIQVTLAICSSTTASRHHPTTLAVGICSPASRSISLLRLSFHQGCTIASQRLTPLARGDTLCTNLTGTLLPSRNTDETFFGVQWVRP

B1: control h1F6 antibody (humanized IgG1 anti-CD70 monoclonal antibody, from CHO DG44 cells cultured without fucose analog; core fucosylated) (antibody, INN chains, looked up, V domains shown)
VH: QVQLVQSGAEVKKPGASVKVSCKASGYTFTNYGMNWVRQAPGQGLKWMGWINTYTGEPTYADAFKGRVTMTRDTSISTAYMELSRLRSDDTAVYYCARDYGDYGMDYWGQGTTVTVSS
VL: DIVMTQSPDSLAVSLGERATINCRASKSVSTSGYSFMHWYQQKPGQPPKLLIYLASNLESGVPDRFSGSGSGTDFTLTISSLQAEDVAVYYCQHSREVPWTFGQGTKVEIK
B2: h1F6 antibody from host cells cultured in the presence of 100 µM alkynyl fucose peracetate (antibody, INN chains, looked up, IgG1, V domains shown)
VH: B1 VH
VL: B1 VL
modifications: produced with 100 µM alkynyl fucose
B3: h1F6 antibody from host cells cultured in the presence of 50 µM alkynyl fucose peracetate (non-core fucosylated anti-CD70 antibody) (antibody, INN chains, looked up, V domains shown)
VH: B1 VH
VL: B1 VL
modifications: non-core fucosylated (alkynyl fucose)

This experiment addresses T1, CD70 (on CD70+ 786-O target cells). Description: cell-based or functional assay.
B1 registered a half maximal lysis (EC50), ADCC 51Cr release assay of 9 ng/mL and a maximal specific lysis of 42.5 percent.

Molecule B2 had a half maximal lysis (EC50), ADCC 51Cr release assay of 0.3 ng/mL and a maximal specific lysis of 54.8 percent.

In turn, B3 registered a half maximal lysis (EC50), ADCC 51Cr release assay of 0.5 ng/mL and a maximal specific lysis of 53.3 percent.

For the origin of these results see US20190276796A1.
